Data as given in paper doi:10.1101/2025.09.12.675771 (bioRxiv, 2025).
Where a chain is given by its changes, count along the chain named. Names may count otherwise.

Tests used:
RBD of COVID-19 = RBD of COVID-19 (SARS-CoV-2, wild type (Wuhan-Hu-1) …, UniProt P0DTC2)
[1] = target: SARS-CoV-2 RBD (residues 332-527), wild type (SARS-CoV-2, wild type (Wuhan-Hu-1), UniProt P0DTC2)
[2] = target: Programmed death-ligand 1 (PD-L1) (Homo sapiens (assumed), UniProt Q9NZQ7); assay: SPR; format and conditions not told; conditions: both partners purified
Chain of Programmed death-ligand 1 (PD-L1) (Q9NZQ7 19-290): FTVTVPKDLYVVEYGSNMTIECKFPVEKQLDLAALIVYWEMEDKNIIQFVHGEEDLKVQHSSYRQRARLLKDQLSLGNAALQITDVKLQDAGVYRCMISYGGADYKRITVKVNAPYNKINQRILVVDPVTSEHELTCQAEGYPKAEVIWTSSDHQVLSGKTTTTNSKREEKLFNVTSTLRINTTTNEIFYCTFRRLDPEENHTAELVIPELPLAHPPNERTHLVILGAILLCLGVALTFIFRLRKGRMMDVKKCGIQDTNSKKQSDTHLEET

B1: Human-1 (antibody, V domains shown)
VH: QVQLKESGPGLVKPSQTLSLTCTVSGFSLINYAISWIRQPPGKGLEWIGVIWTGGGTNYNSALKSRLTISKDTSKNQVSLKLSSVTAADTAVYYCARKDYYGRYYGMDYWGQGTTVTVSS
VL: QAVVTQEPSFTVSPGGTVTLTCRSSTGAVTTSNYANWYQQTPGQLFTGLIGGTNNRAPGVPDRFSGSLLGDKAALTITGAQADDEAIYYCALWYNNHWVFGGGTKLTVL
- Kd (RBD of COVID-19): 171 pM

B2: Human-5 (antibody, V domains shown)
VH: QVQLQESGPGLVKPSETLSLTCTVSGFSLINYAISWVRQPPGKGLEWLGVIWTGGGTNYNSALKSRLTISKDNSKNTVYLKMNSLKTEDTARYYCARKDYYGRYYGMDYWGQGTLVTVSS
VL: B1 VL with T11S, Y38V, Q40E, L45A, T47R, D71N, A86S
- Kd (RBD of COVID-19): 139 pM

B3: R1-32-Q61E-WT (antibody, V domains shown)
VH: EVQLVQSGAEVKKPGSSVKVSCKASGGTFSSYFISWVRQAPGQGLEWMGGIIPILGIADYAEKFQGRVTITADKSTSTAYMELSSLRSEDTAVYYCARENGYSGYGAAYNFDLWGRGTLVTVSS
VL: QSVLTQPPSVSGAPGQRVTISCTGSDSNIGAGYDVHWYQQLPGTAPKLLIYGNSNRPSGVPDRFSGSKSGTSASLAITGLQAEDEADYYCQSYDSSLSGSVFGGGTKLTVL
- binding result [1]: binds

B4: D1 (antibody, V domains shown)
VH: not shown
VL: DIQMTQSPSTLSASVGDRVTITCKASQDVNTAVAWYQQKPGKAPKLLIYWASTLHTGVPSRFSGSGSGTEFTLTISSLQPDDFATYYCQHYYTDPWTFGQGTKVEIK
- Kd [2]: 84 pM

B5: D2 (antibody, V domains shown)
VH: not shown
VL: DIQMTQSPSTLSASVGDRVTITCRASQDVSSYLAWYQQKPGKAPKLLIYAASFLQSGVPSRFSGSGSGTEFTLTISSLQPDDFATYYCQQHYSTPPTFGQGTKVEIK
- binding result [2]: binds

B6: D3 (antibody, V domains shown)
VH: not shown
VL: DIQMTQSPSTLSASVGDRVTITCRASQTIGTWLAWYQQKPGKAPKLLIYTATSLADGVPSRFSGSGSGTEFTLTISSLQPDDFATYYCQQVSSNPRTFGQGTKVEIK
- binding result [2]: binds

B7: D4 (antibody, V domains shown)
VH: EVQLLESGGGLVQPGGSLRLSCAASGFTFSNYAMSWVRQAPGKGLEWVSAISSGGGYTYYADSVKGRFTISRDNSKNTLYLQMNSLRAEDTAVYYCAKDHDYAYYAFDYWGQGTLVTVSS
VL: B5 VL with D28S, V29I, S31N, Y32W, A50W, F53T, Q55E, H91Y, Y92A, P96L
- binding result [2]: binds
